According to patent US20240342305A1 (published 2024):

Assays:
[1] = target: T1, BSA (bovine serum albumin), negative control protein (bovine, UniProt P02769 25-607); experiment: single phage ELISA, BSA coated 100 ng/well
T1 construct: Coated as negative control in the single phage ELISA
Description: (§1) 96 clones were randomly selected in the clones obtained from the fourth round of screening and their binding capability to human GPC3 was analyzed by single phage ELISA (enzyme-linked immunosorbent assay). For this purpose, each single colony was inoculated in 300 μl of 2×YT/ampicillin medium (containing 2% glucose) in a 96-well deep-well plate and cultured with shaking at 37° C. and 250 rpm for 16 hours. 20 μl of culture was inoculated into 500 μl of 2×YT/ampicillin medium (containing 0.1% glucose) and shaken at 37° C. and 250 rpm for 1.5 hours. To prepare the helper phage solution, 75 μl of M13KO7 (titer of 3×10¹² pfu/ml) was taken and mixed into 15 ml of 2×YT medium and added into a culture plate at 50 μl/well, and incubated at 37° C. and 150 rpm for 30 minutes. And then prepared kanamycin solution (180 μl of 50 mg/ml kanamycin was taken and added into 15 ml of 2×YT medium) was added at 50 μl/well and incubated with shaking for 16 hours at 37° C. and 250 rpm. Finally, cells were precipitated by centrifugation (30 mins, 5000×g, 4° C.) and the supernatant was transferred to a new 96-well deep-well plate.
(§2) For single phage ELISA, 100 ng/well of antigen GPC3 and negative control protein BSA (100 μl/well) were used in a 96-well MediSorp ELISA plate (purchased from Nunc) and coated overnight at 4° C. […] Extinction values were measured at 450 nm with an enzyme-linked immunosorbent (Bio-Rad).

[2] = target: T2, human GPC3 recombinant protein (purchased from Shanghai Rui Jin Biotechnology Co., Ltd.) (human, UniProt P51654 25-559, limits assumed); experiment: single phage ELISA, GPC3 coated 100 ng/well
T2 construct: Bought recombinant protein; also called huGPC3; antigen GPC3
Description: as §1, §2

[3] = target: GPC3 expressed on hepatoma cells (HepG2, Huh-7, SK-Hep-1 GPC3) (human, UniProt P51654 25-554); experiment: cell-based or functional assay
[4] = target: T3, His-tagged human GPC3 recombinant protein (purchased from Shanghai Rui Jin Biotech Co., Ltd.) (human, UniProt P51654 25-559, limits assumed); experiment: flow cytometry of CAR T cells stained with His-tagged human GPC3 (50 ug/ml), anti-His-tag antibody and FITC secondary
T3 construct: Bought; construct not described; not shown: His tag
Description: Infected CTL cells were detected by flow cytometry on day 8 of culture for the expression of different chimeric antigen receptors. FACS assays were performed using His-tagged human GPC3 recombinant protein (purchased from Shanghai Rui Jin Biotech Co., Ltd.); the cells were firstly incubated with the protein (50 ug/ml) for 1 hr, washed twice with D-PBS, and Anti-His-tag antibody (1:50 dilution, purchased from Shanghai Reagent Biotechnology Co., Ltd.) was added and incubated for 1 hr and then washed twice with D-PBS and then FITC labeled goat anti-mouse secondary antibody (Shanghai Kangcheng Biotechnology Co., Ltd.), incubated for 50 min, washed with D-PBS for three times, and tested by FACS. Uninfected T lymphocytes was used as a negative control, the positive rates of virus-infected T cells expressing different chimeric antigen receptors are shown in Table 4.

[5] = target: T2, human GPC3 recombinant protein …; experiment: SPR Biacore T200, human GPC3 amine-coupled to CM5 (305 RU), antibody as analyte, multi-cycle kinetics, 25 °C
Description: (§3) To quantitatively analyze the binding of antibody Y035 to antigen human GPC3, the affinity and kinetic parameters of antibody Y035 were measured by multi-cycle kinetic assay using Biacore T200 system (from GE). Antigen human GPC3 (purchased from Shanghai Rui-Jin Biotechnology Co., Ltd.) was coupled to carboxymethyl dextran surface of sensor chip CM5 through primary amino with NHS/EDC coupling according to the manufacturer's instructions, and the final amount of the conjugated ligand was 305RU. Kinetic measurements were performed in 1×HBS-EP+working buffer at 25° C., 30 μl/min, and regeneration condition was 10 mM Glycine-HCl (pH2.5), 10 μl/min for 25 seconds. In each round of the testing cycle, antibody Y035 of a certain concentration flowed over the chip surface. The interaction between the antibody and the antigen protein human GPC3 fixed on the chip caused the change of the molecular concentration on the surface of the sensor chip which was measured according to changes in SPR Signal and expressed in resonance units (RU). Time vs resonance unit (RU) was plotted and after RU value of the reference channel without fixed antigen was subtracted, the resulting sensorgram documents the entire reaction including the binding and dissociation processes. In different cycles of kinetic assay, the concentration of antibody Y035 was 6.25 nM, 12.5 nM, 25 nM, 50 nM and 100 nM, respectively. The resulting curves were evaluated using Biacore T200 evaluation software and the affinity KD values were calculated. Using the same method, the affinity and kinetic parameters of the parental murine monoclonal antibody 5A5 prior to humanization of Y035 were also assayed. The binding data of antibodies Y035 and 5A5 to human GPC3 proteins, respectively, are summarized in Table 2, and humanized antibody Y035 binds human GPC3 protein much better than mouse 5A5 after humanization.

[6] = target: T2, human GPC3 recombinant protein …; experiment: SPR Biacore T200, human GPC3 amine-coupled to CM5, antibody as analyte, multi-cycle kinetics, 25 °C
Description: as §3

T1 sequence (P02769 25-607 limits assumed): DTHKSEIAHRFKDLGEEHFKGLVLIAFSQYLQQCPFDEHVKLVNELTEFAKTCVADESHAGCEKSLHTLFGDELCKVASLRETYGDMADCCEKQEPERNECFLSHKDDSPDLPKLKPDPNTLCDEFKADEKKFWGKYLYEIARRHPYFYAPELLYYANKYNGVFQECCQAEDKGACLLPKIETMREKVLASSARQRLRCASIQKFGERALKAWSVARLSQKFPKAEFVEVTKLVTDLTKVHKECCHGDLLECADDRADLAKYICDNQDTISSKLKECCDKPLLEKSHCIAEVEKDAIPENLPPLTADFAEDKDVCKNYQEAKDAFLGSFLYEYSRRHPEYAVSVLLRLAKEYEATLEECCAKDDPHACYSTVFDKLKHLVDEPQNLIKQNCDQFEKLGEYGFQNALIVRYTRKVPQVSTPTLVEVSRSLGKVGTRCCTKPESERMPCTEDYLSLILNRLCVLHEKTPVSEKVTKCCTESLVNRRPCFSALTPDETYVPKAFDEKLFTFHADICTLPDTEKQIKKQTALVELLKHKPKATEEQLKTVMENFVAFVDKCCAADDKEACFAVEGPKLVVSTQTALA

B1: single chain antibody P1B12E (phage-displayed scFv) (scFv)
scFv: QVQLVESGAEVKKPGASVKVSCKASGGTFSSYAISWVRQAPGQGLEWMGGIIPIFGTANYAQKFQGRVTITADESTSTAYMELSSLRSEDTAVYYCAKSPFSGTPGEYWGRGTLVTVSSGGGGSGGGGSGGGGSEIVLTQSPGTLSLSPGERATLSCRASQSVSSNYLAWYQQKPGQAPRLLIYGASRRATGIPDRFSGSGSGTDFTLTISRVEPEDFAVYHCQQYGASPKTFGQGTKLEIKR
notes: Tested as single phage (M13, phagemid pCantab 5E) culture supernatant in ELISA; the phage coat fusion is not described
[1]
  binding result: no binding
[2]
  binding result: binds

B2: chimeric antigen receptor P7D4-BBZ (P7D4 scFv-CD8-CD137-CD3 zeta), on T cells (other)
chain: QVQLQESGGGLVQPGRSLRLSCAASGFTFSSYAMHWVRQAPGKGLEWVSAISGSGGSTYYADSVKGRFTISRDNSKNTLYLQMNSLRAEDTAVYYCAKDRRGSHADAFDVWGQGTLVTVSSGGGGSGGGGSGGGGSQSALTQPPSASGSPGQSVTISCTGTSSDVGGYNYVSWYQQYPGKAPKLLIYGNSNRPSGVPDRFSGSKSGTSASLAITGLQAEDGADYYCQSYDSSLRVVFGGGTKVTVLGTTTPAPRPPTPAPTIASQPLSLRPEACRPAAGGAVHTRGLDFACDIYIWAPLAGTCGVLLLSLVITLYCKRGRKKLLYIFKQPFMRPVQTTQEEDGCSCRFPEEEEGGCELRVKFSRSADAPAYKQGQNQLYNELNLGRREEYDVLDKRRGRDPEMGGKPRRKNPQEGLYNELQKDKMAEAYSEIGMKGERRRGKGHDGLYQGLSTATKDTYDALHMQALPPR
notes: Second generation CAR on human T cells; also called P7D4 scFv-BBZ
[3]
  Cytotoxicity (%) on HepG2 cells, effector target ratio 1:1 (LDH release, 18 h): 38.6%
  Cytotoxicity (%) on HepG2 cells, effector target ratio 1:3 (LDH release, 18 h): 13.9%
  Cytotoxicity (%) on HepG2 cells, effector target ratio 3:1 (LDH release, 18 h): 71.3%
  Cytotoxicity (%) on HuH-7 cells, effector target ratio 1:1 (LDH release, 18 h): 32.2%
  Cytotoxicity (%) on HuH-7 cells, effector target ratio 1:3 (LDH release, 18 h): 10.2%
  Cytotoxicity (%) on HuH-7 cells, effector target ratio 3:1 (LDH release, 18 h): 69.2%
[4]
  Positive rate of T cells transfection: 53%

B3: chimeric antigen receptor P7D4-δZ (P7D4 scFv-CD8-CD3δzeta), on T cells (other)
chain: QVQLQESGGGLVQPGRSLRLSCAASGFTFSSYAMHWVRQAPGKGLEWVSAISGSGGSTYYADSVKGRFTISRDNSKNTLYLQMNSLRAEDTAVYYCAKDRRGSHADAFDVWGQGTLVTVSSGGGGSGGGGSGGGGSQSALTQPPSASGSPGQSVTISCTGTSSDVGGYNYVSWYQQYPGKAPKLLIYGNSNRPSGVPDRFSGSKSGTSASLAITGLQAEDGADYYCQSYDSSLRVVFGGGTKVTVLGTTTPAPRPPTPAPTIASQPLSLRPEACRPAAGGAVHTRGLDFACDIYIWAPLAGTCGVLLLSLVITRVKFSRSADAPA
notes: Chimeric antigen receptor on lentivirus-infected human T cells; negative control without ITAM; also called P7D4-8Z; P7D4 scFv-δZ
[3]
  Cytotoxicity (%) on HepG2 cells, effector target ratio 1:1 (LDH release, 18 h); signalling-dead negative control CAR: 2.5%
  Cytotoxicity (%) on HepG2 cells, effector target ratio 1:3 (LDH release, 18 h); signalling-dead negative control CAR: 3.2%
  Cytotoxicity (%) on HepG2 cells, effector target ratio 3:1 (LDH release, 18 h); signalling-dead negative control CAR: 4.8%
  Cytotoxicity (%) on HuH-7 cells, effector target ratio 1:1 (LDH release, 18 h); signalling-dead negative control CAR: 1.3%
  Cytotoxicity (%) on HuH-7 cells, effector target ratio 1:3 (LDH release, 18 h); signalling-dead negative control CAR: 5.3%
  Cytotoxicity (%) on HuH-7 cells, effector target ratio 3:1 (LDH release, 18 h); signalling-dead negative control CAR: 3.2%
[4]
  Positive rate of T cells transfection: 59%

B4: humanized antibody Y035 (antibody, V domains shown)
VH: EVQLVQSGAEVKKPGASVKVSCKASGYTFSDYEMHWVRQAPGQGLEWMGAIHPGSGDTAYNQRFKGRVTITADKSTSTAYMELSSLRSEDTAVYYCARFYSYAYWGQGTLVTVSA
VL: DIVMTQTPLSLPVTPGEPASISCRSSQSLVHSNGNTYLQWYLQKPGQSPQLLIYKVSNRFSGVPDRFSGSGSGTDFTLKISRVEAEDVGVYYCSQSIYVPYTFGQGTKLEIKR
notes: Whole antibody expressed in 293F from vectors pIH-hu12H (heavy) and pIK-hu12L (light), purified on Protein A, detected with goat anti-human antibody
[5]
  Kd: 63.4 pM
  koff: 2.51e-05 s⁻¹
  kon: 396000 M⁻¹ s⁻¹

B5: parental murine monoclonal antibody 5A5 (antibody, V domains shown)
VH: QVQLQQSGTELVRPGASVKLSCKALGYTFTDYEMHWVKQTPVHGLEWIGAIHPGSGDTAYNQRFKGKATLTADKSSSTAYMEYSSLTSEDSAVYYCTRFYSYAYWGQGTLVTVSA
VL: DVVMTQTPLSLPVSLGDQASISCRSSQSLVHSNGNTYLQWYLQKPGQSPKLLIYKVSNRFSGVPDRFSGRGSGTDFTLKISRVEAEDLGVYFCSQSIYVPYTFGGGTKLEIKR
notes: Mouse hybridoma antibody purified from ascites on Protein G; also called mouse 5A5
[6]
  Kd: 81.9 pM
  koff: 2.3e-05 s⁻¹
  kon: 280000 M⁻¹ s⁻¹

B6: single chain antibody P7D4 (phage-displayed scFv) (scFv)
scFv: QVQLQESGGGLVQPGRSLRLSCAASGFTFSSYAMHWVRQAPGKGLEWVSAISGSGGSTYYADSVKGRFTISRDNSKNTLYLQMNSLRAEDTAVYYCAKDRRGSHADAFDVWGQGTLVTVSSGGGGSGGGGSGGGGSQSALTQPPSASGSPGQSVTISCTGTSSDVGGYNYVSWYQQYPGKAPKLLIYGNSNRPSGVPDRFSGSKSGTSASLAITGLQAEDGADYYCQSYDSSLRVVFGGGTKVTVLG
notes: Tested as single phage (M13, phagemid pCantab 5E) culture supernatant in ELISA
[1]
  binding result: no binding
[2]
  binding result: binds
